Reference: the supplement of paper PMC10065799, “High-throughput profiling of sequence recognition by tyrosine kinases and SH2 domains using bacterial peptide display” (eLife, 2023)
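For SH2 binding enrichment of the phosphorylated peptide, bacterial display in this document: peptide library displayed on the E. coli surface as eCPX fusions, selected cells deep-sequenced, score is each peptide's frequency after selection divided by its frequency in the input.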
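For phosphorylation enrichment, bacterial display in this document: 11-residue human phosphosite peptides and single-mutation variants displayed on the E. coli surface, counted by deep sequencing, each peptide's frequency after selection divided by its frequency in the unselected input library; frequency after pTyr selection over input frequency; kinase dosed for 20-30% of maximal phosphorylation in three min.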

Each sequence was assayed on AncSZ (assay: phosphorylation enrichment, bacterial display (enrichment ratio); higher = better substrate or ligand; peptides without Tyr show the background).
In the case of CTTIHYNFMCN [TP53_Y234_Y236F], the phosphorylation enrichment is reported as 0.861.
Sequence GLAKEYIDPET [CSNK1G2_Y195] has a phosphorylation enrichment of 0.743.
MSYDRYMAICH [OR2A5_Y123] was tested, and the phosphorylation enrichment was 0.909.
Work on LFSNAYLNDLA [ALDH1A1_Y119_YF] yielded a phosphorylation enrichment of 1.14.
CTTIHQNFMCN [TP53_Y234_Y234Q_YF] was tested, and the phosphorylation enrichment was 0.9.
For ATPKGYERDAS [OTC_Y223_P225R], the phosphorylation enrichment was 0.591.
In the case of SIKNKYVTALF [KCNH2_Y611_D609N_YF], the phosphorylation enrichment is reported as 0.672.
Work on NKEAICSGYIR [SMCHD1_Y283_Y283C] yielded a phosphorylation enrichment of 0.794.
Work on HVKHNYECLVY [XRCC5_Y416_I412V] yielded a phosphorylation enrichment of 1.06.
LPEENYQVLCF [ARHGAP1_Y365_R369C] showed a phosphorylation enrichment of 3.61.
Sequence MICSAYALGGL [CPS1_Y590_R587C] has a phosphorylation enrichment of 0.961.
SETSRYLSELF [KCNJ3_Y67_D70E] gave a phosphorylation enrichment of 1.07.
ILGRFYETSSI [PAX2_Y73_G76S_YF] showed a phosphorylation enrichment of 0.66.
FAKTQYPDIYA [CRX_Y63_V66I] gave a phosphorylation enrichment of 0.518.
FSGLAYTMERS [GLUD1_Y512_H507Y_YF] was tested, and the phosphorylation enrichment was 0.822.
DFDNLYYWDQD [ERBB2_Y1221_A1216D] was tested, and the phosphorylation enrichment was 2.68.
With YSKTQYNQVPS [CXADR_Y318] the phosphorylation enrichment was 0.473.
ALMGPYHGQVL [HADHA_Y343_L342P] gave a phosphorylation enrichment of 0.544.
Sequence VQQVIYATGAL [MYH7_Y422] has a phosphorylation enrichment of 0.932.
In the case of PSNTDYPGPHS [TP63_Y171], the phosphorylation enrichment is reported as 0.809.
With HIPFRYPKEFQ [IDS_Y234] the phosphorylation enrichment was 0.826.
RLAKTYETTLK [ALB_Y377_E382K] was tested, and the phosphorylation enrichment was 0.768.
Sequence HRDSSYYWEIE [RAF1_Y340_Q335H] has a phosphorylation enrichment of 1.69.
Sequence INITIYGKTFR [EFHC1_Y177] has a phosphorylation enrichment of 1.13.
In the case of SKDQIYPMKLK [RANBP17_Y823], the phosphorylation enrichment is reported as 0.451.
RSPLRYTSILT [OR51B6_Y130] showed a phosphorylation enrichment of 0.679.
KELSNYKHLTL [SLIT2_Y776] showed a phosphorylation enrichment of 0.571.
Sequence TLQSMFGCDVG [HLA-B_Y123_Y123F] has a phosphorylation enrichment of 0.989.
With QNRELYSEGLG [CNKSR1_Y665] the phosphorylation enrichment was 0.516.
ALPGEYIPTVF [RAC1_Y32_F28L] was tested, and the phosphorylation enrichment was 1.1.
In the case of PSPMPCASCQM [FOXL2_Y215_Y215C], the phosphorylation enrichment is reported as 0.541.
MSRLKYPVSQQ [BTK_Y375_I370M] showed a phosphorylation enrichment of 0.573.
For VTGWGYRKLRD [F11_Y521], the phosphorylation enrichment was 0.792.

The sequences below were run against Grb2 SH2 (UniProt P62993) (assay: SH2 binding enrichment of the phosphorylated peptide, bacterial display (enrichment ratio); higher = better substrate or ligand; peptides without Tyr show the background).
Sequence of Grb2 SH2 (P62993 whole entry, looked up): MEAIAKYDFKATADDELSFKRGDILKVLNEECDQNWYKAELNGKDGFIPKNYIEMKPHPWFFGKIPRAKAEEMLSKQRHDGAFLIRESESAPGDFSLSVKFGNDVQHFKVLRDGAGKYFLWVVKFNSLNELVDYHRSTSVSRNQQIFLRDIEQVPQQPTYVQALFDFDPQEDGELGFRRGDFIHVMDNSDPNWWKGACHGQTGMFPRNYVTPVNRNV
Work on CTTIHYNFMCN [TP53_Y234_Y236F] yielded an SH2 binding enrichment of 1.8.
GLAKEYIDPET [CSNK1G2_Y195] was tested, and the SH2 binding enrichment was 0.942.
MSYDRYMAICH [OR2A5_Y123] showed an SH2 binding enrichment of 0.753.
For LFSNAYLNDLA [ALDH1A1_Y119_YF], the SH2 binding enrichment was 4.23.
CTTIHQNFMCN [TP53_Y234_Y234Q_YF] was tested, and the SH2 binding enrichment was 1.2.
ATPKGYERDAS [OTC_Y223_P225R] was tested, and the SH2 binding enrichment was 0.767.
In the case of SIKNKYVTALF [KCNH2_Y611_D609N_YF], the SH2 binding enrichment is reported as 0.994.
Work on NKEAICSGYIR [SMCHD1_Y283_Y283C] yielded an SH2 binding enrichment of 0.761.
HVKHNYECLVY [XRCC5_Y416_I412V] was tested, and the SH2 binding enrichment was 1.03.
With LPEENYQVLCF [ARHGAP1_Y365_R369C] the SH2 binding enrichment was 0.739.
MICSAYALGGL [CPS1_Y590_R587C] was tested, and the SH2 binding enrichment was 0.764.
Work on SETSRYLSELF [KCNJ3_Y67_D70E] yielded an SH2 binding enrichment of 0.883.
ILGRFYETSSI [PAX2_Y73_G76S_YF] was tested, and the SH2 binding enrichment was 0.85.
Sequence FAKTQYPDIYA [CRX_Y63_V66I] has an SH2 binding enrichment of 0.881.
FSGLAYTMERS [GLUD1_Y512_H507Y_YF] gave an SH2 binding enrichment of 0.856.
For DFDNLYYWDQD [ERBB2_Y1221_A1216D], the SH2 binding enrichment was 0.808.
YSKTQYNQVPS [CXADR_Y318] gave an SH2 binding enrichment of 0.748.
In the case of ALMGPYHGQVL [HADHA_Y343_L342P], the SH2 binding enrichment is reported as 0.77.
VQQVIYATGAL [MYH7_Y422] was tested, and the SH2 binding enrichment was 0.798.
For PSNTDYPGPHS [TP63_Y171], the SH2 binding enrichment was 0.792.
For HIPFRYPKEFQ [IDS_Y234], the SH2 binding enrichment was 1.1.
RLAKTYETTLK [ALB_Y377_E382K] gave an SH2 binding enrichment of 0.809.
In the case of HRDSSYYWEIE [RAF1_Y340_Q335H], the SH2 binding enrichment is reported as 0.842.
For INITIYGKTFR [EFHC1_Y177], the SH2 binding enrichment was 1.01.
Work on SKDQIYPMKLK [RANBP17_Y823] yielded an SH2 binding enrichment of 0.804.
In the case of RSPLRYTSILT [OR51B6_Y130], the SH2 binding enrichment is reported as 1.67.
In the case of KELSNYKHLTL [SLIT2_Y776], the SH2 binding enrichment is reported as 0.721.
Sequence TLQSMFGCDVG [HLA-B_Y123_Y123F] has an SH2 binding enrichment of 0.79.
Work on QNRELYSEGLG [CNKSR1_Y665] yielded an SH2 binding enrichment of 0.74.
In the case of ALPGEYIPTVF [RAC1_Y32_F28L], the SH2 binding enrichment is reported as 0.697.
PSPMPCASCQM [FOXL2_Y215_Y215C] was tested, and the SH2 binding enrichment was 0.797.
With MSRLKYPVSQQ [BTK_Y375_I370M] the SH2 binding enrichment was 1.03.
In the case of VTGWGYRKLRD [F11_Y521], the SH2 binding enrichment is reported as 0.798.

These sequences were tested against c-Src SH2 in the same assay as above.
CTTIHYNFMCN [TP53_Y234_Y236F] was tested, and the SH2 binding enrichment was 1.84.
GLAKEYIDPET [CSNK1G2_Y195] was tested, and the SH2 binding enrichment was 0.448.
With MSYDRYMAICH [OR2A5_Y123] the SH2 binding enrichment was 0.79.
LFSNAYLNDLA [ALDH1A1_Y119_YF] gave an SH2 binding enrichment of 1.29.
In the case of CTTIHQNFMCN [TP53_Y234_Y234Q_YF], the SH2 binding enrichment is reported as 1.12.
With ATPKGYERDAS [OTC_Y223_P225R] the SH2 binding enrichment was 0.444.
With SIKNKYVTALF [KCNH2_Y611_D609N_YF] the SH2 binding enrichment was 0.671.
Work on NKEAICSGYIR [SMCHD1_Y283_Y283C] yielded an SH2 binding enrichment of 0.436.
Sequence HVKHNYECLVY [XRCC5_Y416_I412V] has an SH2 binding enrichment of 5.15.
Sequence LPEENYQVLCF [ARHGAP1_Y365_R369C] has an SH2 binding enrichment of 0.82.
MICSAYALGGL [CPS1_Y590_R587C] was tested, and the SH2 binding enrichment was 0.552.
SETSRYLSELF [KCNJ3_Y67_D70E] gave an SH2 binding enrichment of 0.588.
In the case of ILGRFYETSSI [PAX2_Y73_G76S_YF], the SH2 binding enrichment is reported as 1.02.
FAKTQYPDIYA [CRX_Y63_V66I] showed an SH2 binding enrichment of 0.533.
Sequence FSGLAYTMERS [GLUD1_Y512_H507Y_YF] has an SH2 binding enrichment of 0.5.
For DFDNLYYWDQD [ERBB2_Y1221_A1216D], the SH2 binding enrichment was 0.453.
Sequence YSKTQYNQVPS [CXADR_Y318] has an SH2 binding enrichment of 0.767.
ALMGPYHGQVL [HADHA_Y343_L342P] showed an SH2 binding enrichment of 0.433.
In the case of VQQVIYATGAL [MYH7_Y422], the SH2 binding enrichment is reported as 0.413.
For PSNTDYPGPHS [TP63_Y171], the SH2 binding enrichment was 0.401.
In the case of HIPFRYPKEFQ [IDS_Y234], the SH2 binding enrichment is reported as 0.862.
RLAKTYETTLK [ALB_Y377_E382K] gave an SH2 binding enrichment of 0.557.
Sequence HRDSSYYWEIE [RAF1_Y340_Q335H] has an SH2 binding enrichment of 10.9.
Sequence INITIYGKTFR [EFHC1_Y177] has an SH2 binding enrichment of 0.5.
For SKDQIYPMKLK [RANBP17_Y823], the SH2 binding enrichment was 0.446.
RSPLRYTSILT [OR51B6_Y130] was tested, and the SH2 binding enrichment was 2.87.
KELSNYKHLTL [SLIT2_Y776] was tested, and the SH2 binding enrichment was 0.503.
TLQSMFGCDVG [HLA-B_Y123_Y123F] was tested, and the SH2 binding enrichment was 0.541.
Sequence QNRELYSEGLG [CNKSR1_Y665] has an SH2 binding enrichment of 0.536.
Work on ALPGEYIPTVF [RAC1_Y32_F28L] yielded an SH2 binding enrichment of 0.509.
PSPMPCASCQM [FOXL2_Y215_Y215C] gave an SH2 binding enrichment of 0.523.
In the case of MSRLKYPVSQQ [BTK_Y375_I370M], the SH2 binding enrichment is reported as 0.608.
VTGWGYRKLRD [F11_Y521] showed an SH2 binding enrichment of 0.505.

The sequences below were run against SHP2-C SH2 in the same assay as above.
In the case of CTTIHYNFMCN [TP53_Y234_Y236F], the SH2 binding enrichment is reported as 1.93.
GLAKEYIDPET [CSNK1G2_Y195] was tested, and the SH2 binding enrichment was 0.967.
For MSYDRYMAICH [OR2A5_Y123], the SH2 binding enrichment was 0.605.
LFSNAYLNDLA [ALDH1A1_Y119_YF] gave an SH2 binding enrichment of 0.627.
For CTTIHQNFMCN [TP53_Y234_Y234Q_YF], the SH2 binding enrichment was 1.02.
In the case of ATPKGYERDAS [OTC_Y223_P225R], the SH2 binding enrichment is reported as 0.562.
SIKNKYVTALF [KCNH2_Y611_D609N_YF] was tested, and the SH2 binding enrichment was 1.06.
Sequence NKEAICSGYIR [SMCHD1_Y283_Y283C] has an SH2 binding enrichment of 0.462.
HVKHNYECLVY [XRCC5_Y416_I412V] gave an SH2 binding enrichment of 0.938.
LPEENYQVLCF [ARHGAP1_Y365_R369C] was tested, and the SH2 binding enrichment was 0.49.
With MICSAYALGGL [CPS1_Y590_R587C] the SH2 binding enrichment was 0.506.
In the case of SETSRYLSELF [KCNJ3_Y67_D70E], the SH2 binding enrichment is reported as 0.774.
Work on ILGRFYETSSI [PAX2_Y73_G76S_YF] yielded an SH2 binding enrichment of 0.792.
FAKTQYPDIYA [CRX_Y63_V66I] gave an SH2 binding enrichment of 1.
Sequence FSGLAYTMERS [GLUD1_Y512_H507Y_YF] has an SH2 binding enrichment of 0.838.
DFDNLYYWDQD [ERBB2_Y1221_A1216D] was tested, and the SH2 binding enrichment was 0.462.
YSKTQYNQVPS [CXADR_Y318] was tested, and the SH2 binding enrichment was 0.714.
ALMGPYHGQVL [HADHA_Y343_L342P] gave an SH2 binding enrichment of 1.03.
VQQVIYATGAL [MYH7_Y422] was tested, and the SH2 binding enrichment was 0.727.
PSNTDYPGPHS [TP63_Y171] showed an SH2 binding enrichment of 0.58.
Sequence HIPFRYPKEFQ [IDS_Y234] has an SH2 binding enrichment of 1.12.
Sequence RLAKTYETTLK [ALB_Y377_E382K] has an SH2 binding enrichment of 0.556.
For HRDSSYYWEIE [RAF1_Y340_Q335H], the SH2 binding enrichment was 0.938.
INITIYGKTFR [EFHC1_Y177] was tested, and the SH2 binding enrichment was 0.658.
SKDQIYPMKLK [RANBP17_Y823] was tested, and the SH2 binding enrichment was 0.764.
In the case of RSPLRYTSILT [OR51B6_Y130], the SH2 binding enrichment is reported as 3.94.
KELSNYKHLTL [SLIT2_Y776] was tested, and the SH2 binding enrichment was 0.634.
TLQSMFGCDVG [HLA-B_Y123_Y123F] was tested, and the SH2 binding enrichment was 0.684.
Sequence QNRELYSEGLG [CNKSR1_Y665] has an SH2 binding enrichment of 0.616.
In the case of ALPGEYIPTVF [RAC1_Y32_F28L], the SH2 binding enrichment is reported as 0.643.
In the case of PSPMPCASCQM [FOXL2_Y215_Y215C], the SH2 binding enrichment is reported as 0.606.
For MSRLKYPVSQQ [BTK_Y375_I370M], the SH2 binding enrichment was 0.78.
In the case of VTGWGYRKLRD [F11_Y521], the SH2 binding enrichment is reported as 0.472.
